The values that follow come from patent US20140308239A1 (ELEVEN BIOTHERAPEUTICS, published 2014).

Test [1] concerns the target IL-1RI on HEK-Blue IL-1β responsive cells (UniProt P14778).
The target in test [2] is T1, soluble recombinant human IL-1RI (corresponding to the extracellular domain of IL-1RI) (human, UniProt P14778 18-336).
T1 construct: extracellular domain
T1 sequence (looked up): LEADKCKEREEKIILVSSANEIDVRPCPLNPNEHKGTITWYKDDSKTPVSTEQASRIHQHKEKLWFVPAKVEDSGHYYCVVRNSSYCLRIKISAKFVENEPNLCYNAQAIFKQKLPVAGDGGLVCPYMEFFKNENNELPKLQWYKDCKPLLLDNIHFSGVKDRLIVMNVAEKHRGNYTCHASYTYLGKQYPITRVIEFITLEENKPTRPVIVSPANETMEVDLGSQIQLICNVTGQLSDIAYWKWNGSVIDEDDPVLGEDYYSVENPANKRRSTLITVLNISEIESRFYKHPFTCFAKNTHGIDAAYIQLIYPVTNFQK
Briefly: SPR (Reichert SR7000DC), soluble recombinant human IL-1RI, PBS with 0.005% Tween 20. Here is the method: The binding properties of proteins for soluble recombinant human IL-1RI (corresponding to the extracellular domain of IL-1RI) were evaluated using surface plasmon resonance with a Reichert SR7000DC Dual Channel SPR system. Binding was evaluated in phosphate buffered saline with 0.005% Tween 20. […] Thus, the P01 protein bound to IL-1RI with a greater affinity than did IL-1β under similar conditions.

Test [3] addresses T2, IL-1RI on HEK-Blue IL-1β responsive cells (UniProt P14778 18-569).
T2 sequence (looked up): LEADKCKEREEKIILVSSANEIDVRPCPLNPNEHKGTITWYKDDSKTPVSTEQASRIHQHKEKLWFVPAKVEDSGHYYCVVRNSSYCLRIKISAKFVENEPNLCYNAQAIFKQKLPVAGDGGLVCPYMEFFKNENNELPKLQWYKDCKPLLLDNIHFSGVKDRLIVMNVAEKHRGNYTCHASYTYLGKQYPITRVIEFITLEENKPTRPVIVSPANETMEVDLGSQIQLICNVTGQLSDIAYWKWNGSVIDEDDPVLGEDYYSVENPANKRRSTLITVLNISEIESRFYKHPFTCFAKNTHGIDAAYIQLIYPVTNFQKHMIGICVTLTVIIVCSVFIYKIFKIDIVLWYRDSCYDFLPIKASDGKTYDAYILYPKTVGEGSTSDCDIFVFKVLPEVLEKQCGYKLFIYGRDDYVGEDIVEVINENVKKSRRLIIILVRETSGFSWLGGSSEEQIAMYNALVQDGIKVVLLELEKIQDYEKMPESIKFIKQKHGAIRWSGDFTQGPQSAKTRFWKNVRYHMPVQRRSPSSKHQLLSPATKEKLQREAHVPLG
Briefly: cell-based or functional assay.

For test [4], the target named is T2, IL-1RI on HEK-Blue IL-1β responsive …. Briefly: cell-based or functional assay. The source holds these as a separate data set.
For test [5] the target is unchanged. Briefly: cell-based or functional assay. This is another data set of the same source.

Molecule GUS (enzyme) came in with an OD650 (SEAP reporter of HEK-Blue IL-1β cells, agonism test, negative control; amount of protein not given) in test [1] of 0.06 OD650.

B1: P06 (designed binder)
chain: APVRSLNCTLWDVNQKTFYLRNNQLVAGYLQGPNVEQQVVFSMSFVQGEESNDKIPVALGLKEKNLYLSCVLKDDKPTLQLESVDPKNYPKKKMEKRFVFNKIEINNKLEFESAQFPNWYISTSMEADQPVFLGGTKGGQDITDFTMQFVSS
notes: Expressed in E. coli
Take B1: in test [2], the Kd worked out at 0.41 nM, the koff came out at 0.0017 s⁻¹ and the kon amounted to 4.8e+06 M⁻¹ s⁻¹. Also, the “OD650 (SEAP reporter of HEK-Blue IL-1β cells, agonism test, protein alone; amount of protein not given)” value in test [3] was 1.78 OD650.

B2: P01 (designed binder)
chain: APVRSLAFRIWDVNQKTFYLRNNQLVAGYLQGPNVNLEEKIDVSFVQGEESNDKIPVALGIHGGKMCLSCVKSGDETRLQLEAVDPKNYPKKKMDKRFAFIRSDSGPTTSFESAACPGWFLCTAMEADQPVSLTNMPDEGVMVTKFYMQFVSS
notes: Expressed in E. coli; In the cell assay, supernatants or lysates containing P01 were used; also called chimeric cytokine domain P01
On to B2, for which, in test [2], the Kd is 0.47 nM, the koff stood at 2.32e-05 s⁻¹ and the kon worked out at 49300 M⁻¹ s⁻¹. Moreover, in test [4], the “IC50 (read off the curve); HEK-Blue IL-1β SEAP reporter, IL-1β 0.1 ng/ml, lysate with untagged P01, concentration estimated” value is approximately 1 ng/mL. Also, the “OD650 (SEAP reporter of HEK-Blue IL-1β cells, agonism test, protein alone; amount of protein not given)” value in test [3] was determined as 0.061 OD650.

B3: P02 (designed binder)
chain: APVRSLAFRIWDVNQKTFYLRNNQLVAGYLQGPNVNLEEKIDVSFVQGEESNDKIPVALGIHGGKMCLSCVKSGDETRLQLEAVDPKNYPKKKMEKRFVFNKIEINNKLSFESAACPGWFLCTAMEADQPVSLTNMPDEGVMVTKFYMQFVSS
notes: Expressed in E. coli; also called chimeric cytokine domain P02
Consider B3, for which, in test [2], the Kd came out at 0.636 nM, the koff is 2.16e-05 s⁻¹ and the kon turned out to be 33900 M⁻¹ s⁻¹. Further, the “IC50 (read off the curve); HEK-Blue IL-1β SEAP reporter, IL-1β 0.1 ng/ml, lysate with untagged P02, concentration estimated” value in test [4] is approximately 1 ng/mL.

B4: P04 (designed binder)
chain: APVRSLAFRIWDVNQKTFYLRNNQLVAGYLQGPNVNLEEKFSMSFVQGEESNDKIPVALGLKEKNLYLSCVLKDDKPTLQLESVDPKNYPKKKMEKRFVFNKIEINNKLEFESAACPGWFLCTAMEADQPVSLTNMPDEGVMVTKFTMQFVSS
notes: Expressed in E. coli; also called chimeric cytokine domain P04
In the case of B4, the Kd in test [2] is 1.71 nM. The “IC50 (read off the curve); HEK-Blue IL-1β SEAP reporter, IL-1β 0.1 ng/ml, lysate with untagged P04, concentration estimated” value in test [4] is approximately 6 ng/mL.

B5: P05 (designed binder)
chain: APVRSLNCRIWDVNQKTFYLRNNQLVAGYLQGPNVNLEEKFSMSFVQGEESNDKIPVALGLKEKNLYLSCVLKDDKPTLQLESVDPKNYPKKKMEKRFVFNKIEINNKLEFESAQFPNWFLCTAMEADQPVSLTNMPDEGVMVTKFYMQFVSS
notes: Expressed in E. coli; also called EBI-005; chimeric cytokine domain P05
Take B5: in test [2], the Kd was determined as 0.012 nM, the koff worked out at 4.15e-05 s⁻¹ and the kon was determined as 3.47e+06 M⁻¹ s⁻¹. Also, the “IC50, antagonism of IL-1β activity in the HEK-Blue IL-1β SEAP reporter assay” value in test [5] was less than 5 ng/mL.

B6: P07 (designed binder)
chain: APVRSLNCRIWDVNQKTFYLRNNQLVAGYLQGPNVNLEEKFSMSFVQGEESNDKIPVALGLKEKNLYLSCVLKDDKPTLQLESVDPKNYPKKKMEKRFVFNKIEINNKLEFESAQFPNWFLCTAMEADQPVSLTNMPDEGQDITDFTMQFVSS
notes: Expressed in E. coli
In the case of B6, in test [2], the Kd was determined as 92.6 nM, the koff was 0.00146 s⁻¹ and the kon amounted to 15800 M⁻¹ s⁻¹. Further, the “OD650 (SEAP reporter of HEK-Blue IL-1β cells, agonism test, protein alone; amount of protein not given)” value in test [3] came to 0.222 OD650.

B7: P03 (designed binder)
chain: APVRSLAFRIWDVNQKTFYLRNNQLVAGYLQGPNVNLEEKFSMSFVQGEESNDKIPVALGLKEKNLYLSCVLKDDKPTLQLESVDPKNYPKKKMEKRFVFIRSDSGPTTSFESAACPGWFLCTAMEADQPVSLTNMPDEGVMVTKFTMQFVSS
notes: Expressed in E. coli; also called chimeric cytokine domain P03
Take B7: in test [2], the Kd stood at 0.29 nM, the koff was determined as 0.0012 s⁻¹ and the on-rate constant (kon) worked out at 4.1e+06 M⁻¹ s⁻¹. In addition, the “IC50 (read off the curve); HEK-Blue IL-1β SEAP reporter, IL-1β 0.1 ng/ml, lysate with untagged P03, concentration estimated” value in test [4] is approximately 2 ng/mL.
